This passage reports Km results from PMC6381275, “Structure and Mechanism of LcpA, a Phosphotransferase That Mediates Glycosylation of a Gram-Positive Bacterial Cell Wall-Anchored Protein” (mBio, 2019).

This data set concerns CC(C)=CCC/C(C)=C/CC/C(C)=C/CO[P@@](=O)(O)OP(=O)(O)O. Nature of the data set: fluorometric inorganic phosphate release assay (pyrophosphatase). The class given is biochemical, Actinomyces oris. Particulars: 20 mM Tris-HCl pH 8.0, 30°C, 24 h, 3 µM enzyme, 0-150 µM FPP.

The term Km denotes the concentration of substrate that gives half-maximal velocity. As to “LcpA (eLcpA, recombinant extracellular LCP domain) (Actinomyces oris)”, the Km was 15.2 ± 3.7 µM.
